Earlier results on one substance are cited in publication PMC2903477.

This series deals with TrkB (Homo sapiens) (UniProt Q16620).
Chain of UniProt Q16620 (Q16620 32-430): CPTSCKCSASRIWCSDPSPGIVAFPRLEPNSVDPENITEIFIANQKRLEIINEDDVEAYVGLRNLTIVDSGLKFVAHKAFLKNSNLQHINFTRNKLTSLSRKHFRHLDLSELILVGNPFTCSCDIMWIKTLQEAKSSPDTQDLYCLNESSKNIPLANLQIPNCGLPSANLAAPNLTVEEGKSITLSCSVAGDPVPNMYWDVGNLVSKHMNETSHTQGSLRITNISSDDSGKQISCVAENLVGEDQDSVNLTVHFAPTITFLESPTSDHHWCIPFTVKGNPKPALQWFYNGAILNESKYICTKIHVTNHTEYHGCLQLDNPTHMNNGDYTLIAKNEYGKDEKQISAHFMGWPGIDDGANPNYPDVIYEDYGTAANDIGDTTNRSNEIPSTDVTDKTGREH

For orientation: Kd means the constant that tells how readily two partners part at equilibrium. Turning to BDNF (from UniProt P23560), the Kd was 0.1 nM.
